Consider 29 sequences from the supplement of paper PMC9428881.

This data set can be described thus: background-corrected fluorescence of 3'-dye-labeled ssDNA relative to brightest sequence (3'-GCGCG) (fraction); higher = brighter dye fluorescence (less quenching). In short, it runs like this:
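Single-stranded DNA was built on glass slides by light-directed phosphoramidite synthesis, ending in a 3' Cy3 or Cy5 dye beside each of 1024 permuted pentamers. Arrays were washed in acetonitrile for 2 h at r.t., then scanned at 532 or 635 nm before and after overnight ethylenediamine/ethanol deprotection. Each value averages 10 features per array and at least 3 syntheses. Fluorescence, corrected by subtracting unlabeled-oligo background, is scaled to the brightest sequence.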

± gives the standard error.

As for “TTTTTTGCTCATGATGATGCTTTTTTTTTTTTTTTAGCCA [ACCGA]”, the background-corrected fluorescence by setting is: (dye: Cy3 (3' terminal)) 0.5 ± 0.028; (dye: Cy5 (3' terminal)) 0.394 ± 0.023.

Regarding “TTTTTTGCTCATGATGCGCATTTTTTTTTTTTTTTAGCAT [TACGA]”, the background-corrected fluorescence was found to be 0.519 ± 0.039 (dye: Cy3 (3' terminal)) and 0.405 ± 0.032 (dye: Cy5 (3' terminal)).

As to “TTTTTTGCTCATGATGCTCATTTTTTTTTTTTTTTAGCAG [GACGA]”, the background-corrected fluorescence (dye: Cy3 (3' terminal)) is 0.574 ± 0.018 and the background-corrected fluorescence (dye: Cy5 (3' terminal)) was 0.42 ± 0.02.

Regarding “TTTTTTGCTCATGATGCTGATTTTTTTTTTTTTTTAGCAC [CACGA]”, the background-corrected fluorescence by setting is: (dye: Cy3 (3' terminal)) 0.415 ± 0.019; (dye: Cy5 (3' terminal)) 0.328 ± 0.012.

As for “TTTTTTGCTCATGATGCTGCTTTTTTTTTTTTTTTAGCAA [AACGA]”, the background-corrected fluorescence was found to be 0.579 ± 0.03 (dye: Cy3 (3' terminal)) and 0.427 ± 0.03 (dye: Cy5 (3' terminal)).

For “TTTTTTGCTCATGCGCAGCATTTTTTTTTTTTTTTAGATT”, the background-corrected fluorescence amounted to 0.565 ± 0.035 (dye: Cy3 (3' terminal)) and 0.41 ± 0.018 (dye: Cy5 (3' terminal)).

With “TTTTTTGCTCATGCGCATCATTTTTTTTTTTTTTTAGATG [GTAGA]”, the background-corrected fluorescence worked out at 0.552 ± 0.027 (dye: Cy3 (3' terminal)) and 0.439 ± 0.018 (dye: Cy5 (3' terminal)).

As for “TTTTTTGCTCATGCGCATGATTTTTTTTTTTTTTTAGATC [CTAGA]”, the background-corrected fluorescence was determined as 0.464 ± 0.013 (dye: Cy3 (3' terminal)) and 0.359 ± 0.023 (dye: Cy5 (3' terminal)).

For the sequence “TTTTTTGCTCATGCGCATGCTTTTTTTTTTTTTTTAGATA [ATAGA]”, the background-corrected fluorescence was determined as 0.582 ± 0.025 (dye: Cy3 (3' terminal)) and 0.434 ± 0.019 (dye: Cy5 (3' terminal)).

As to “TTTTTTGCTCATGCTCAGCATTTTTTTTTTTTTTTAGAGT [TGAGA]”, the background-corrected fluorescence is, setting by setting: (dye: Cy3 (3' terminal)) 0.598 ± 0.017; (dye: Cy5 (3' terminal)) 0.503 ± 0.029.

As for “TTTTTTGCTCATGCTCATCATTTTTTTTTTTTTTTAGAGG [GGAGA]”, the background-corrected fluorescence is, setting by setting: (dye: Cy3 (3' terminal)) 0.645 ± 0.037; (dye: Cy5 (3' terminal)) 0.525 ± 0.055.

Sequence “TTTTTTGCTCATGCTCATGATTTTTTTTTTTTTTTAGAGC [CGAGA]” had a background-corrected fluorescence (dye: Cy3 (3' terminal)) of 0.565 ± 0.022 and a background-corrected fluorescence (dye: Cy5 (3' terminal)) of 0.435 ± 0.046.

Take “TTTTTTGCTCATGCTCATGCTTTTTTTTTTTTTTTAGAGA”: the background-corrected fluorescence worked out at 0.633 ± 0.031 (dye: Cy3 (3' terminal)) and 0.519 ± 0.029 (dye: Cy5 (3' terminal)).

With “TTTTTTGCTCATGCTGAGCATTTTTTTTTTTTTTTAGACT [TCAGA]”, the background-corrected fluorescence by setting is: (dye: Cy3 (3' terminal)) 0.519 ± 0.025; (dye: Cy5 (3' terminal)) 0.389 ± 0.039.

As for “TTTTTTGCTCATGCTGATCATTTTTTTTTTTTTTTAGACG [GCAGA]”, the background-corrected fluorescence runs as follows: (dye: Cy3 (3' terminal)) 0.563 ± 0.031; (dye: Cy5 (3' terminal)) 0.443 ± 0.033.

Take “TTTTTTGCTCATGCTGATGATTTTTTTTTTTTTTTAGACC [CCAGA]”: the background-corrected fluorescence stood at 0.439 ± 0.034 (dye: Cy3 (3' terminal)) and 0.331 ± 0.02 (dye: Cy5 (3' terminal)).

Regarding “TTTTTTGCTCATGCTGATGCTTTTTTTTTTTTTTTAGACA [ACAGA]”, the background-corrected fluorescence is, setting by setting: (dye: Cy3 (3' terminal)) 0.522 ± 0.06; (dye: Cy5 (3' terminal)) 0.383 ± 0.029.

“TTTTTTGCTCATGCTGCGCATTTTTTTTTTTTTTTAGAAT [TAAGA]” returned a background-corrected fluorescence (dye: Cy3 (3' terminal)) of 0.59 ± 0.032 and a background-corrected fluorescence (dye: Cy5 (3' terminal)) of 0.449 ± 0.024.

In the case of “TTTTTTGCTCATGCTGCTCATTTTTTTTTTTTTTTAGAAG [GAAGA]”, the background-corrected fluorescence (dye: Cy3 (3' terminal)) is 0.5917 ± 0.0049 and the background-corrected fluorescence (dye: Cy5 (3' terminal)) was determined as 0.456 ± 0.025.

With “TTTTTTGCTCATGCTGCTGATTTTTTTTTTTTTTTAGAAC [CAAGA]”, the background-corrected fluorescence worked out at 0.485 ± 0.022 (dye: Cy3 (3' terminal)) and 0.358 ± 0.022 (dye: Cy5 (3' terminal)).

Consider “TTTTTTGCTCATGCTGCTGCTTTTTTTTTTTTTTTAGAAA [AAAGA]”, for which the background-corrected fluorescence came to 0.64 ± 0.019 (dye: Cy3 (3' terminal)) and 0.484 ± 0.055 (dye: Cy5 (3' terminal)).

Consider “TTTTTTGCTGAGCAGCAGCATTTTTTTTTTTTTTTACTTT [TTTCA]”, for which the background-corrected fluorescence runs as follows: (dye: Cy3 (3' terminal)) 0.519 ± 0.022; (dye: Cy5 (3' terminal)) 0.37 ± 0.022.

With “TTTTTTGCTGAGCAGCATCATTTTTTTTTTTTTTTACTTG [GTTCA]”, the background-corrected fluorescence (dye: Cy3 (3' terminal)) came to 0.503 ± 0.019 and the background-corrected fluorescence (dye: Cy5 (3' terminal)) turned out to be 0.4 ± 0.024.

With “TTTTTTGCTGAGCAGCATGATTTTTTTTTTTTTTTACTTC [CTTCA]”, the background-corrected fluorescence was 0.405 ± 0.022 (dye: Cy3 (3' terminal)) and 0.312 ± 0.027 (dye: Cy5 (3' terminal)).

For the sequence “TTTTTTGCTGAGCAGCATGCTTTTTTTTTTTTTTTACTTA [ATTCA]”, the background-corrected fluorescence runs as follows: (dye: Cy3 (3' terminal)) 0.493 ± 0.06; (dye: Cy5 (3' terminal)) 0.379 ± 0.027.

In the case of “TTTTTTGCTGAGCATCAGCATTTTTTTTTTTTTTTACTGT [TGTCA]”, the background-corrected fluorescence (dye: Cy3 (3' terminal)) is 0.63 ± 0.027 and the background-corrected fluorescence (dye: Cy5 (3' terminal)) amounted to 0.45 ± 0.06.

For the sequence “TTTTTTGCTGAGCATCATCATTTTTTTTTTTTTTTACTGG [GGTCA]”, the background-corrected fluorescence was determined as 0.623 ± 0.022 (dye: Cy3 (3' terminal)) and 0.481 ± 0.023 (dye: Cy5 (3' terminal)).

Regarding “TTTTTTGCTGAGCATCATGATTTTTTTTTTTTTTTACTGC [CGTCA]”, the background-corrected fluorescence by setting is: (dye: Cy3 (3' terminal)) 0.491 ± 0.033; (dye: Cy5 (3' terminal)) 0.365 ± 0.028.

For the sequence “TTTTTTGCTGAGCATCATGCTTTTTTTTTTTTTTTACTGA [AGTCA]”, the background-corrected fluorescence (dye: Cy3 (3' terminal)) came to 0.654 ± 0.04 and the background-corrected fluorescence (dye: Cy5 (3' terminal)) worked out at 0.475 ± 0.024.
